The assay concerns the target BTN3A expressed at the cell surface (human), O00481. Briefly: cell-based or functional assay.

BTN3A expressed at the cell surface (human), O00481, sequence (O00481 30-513): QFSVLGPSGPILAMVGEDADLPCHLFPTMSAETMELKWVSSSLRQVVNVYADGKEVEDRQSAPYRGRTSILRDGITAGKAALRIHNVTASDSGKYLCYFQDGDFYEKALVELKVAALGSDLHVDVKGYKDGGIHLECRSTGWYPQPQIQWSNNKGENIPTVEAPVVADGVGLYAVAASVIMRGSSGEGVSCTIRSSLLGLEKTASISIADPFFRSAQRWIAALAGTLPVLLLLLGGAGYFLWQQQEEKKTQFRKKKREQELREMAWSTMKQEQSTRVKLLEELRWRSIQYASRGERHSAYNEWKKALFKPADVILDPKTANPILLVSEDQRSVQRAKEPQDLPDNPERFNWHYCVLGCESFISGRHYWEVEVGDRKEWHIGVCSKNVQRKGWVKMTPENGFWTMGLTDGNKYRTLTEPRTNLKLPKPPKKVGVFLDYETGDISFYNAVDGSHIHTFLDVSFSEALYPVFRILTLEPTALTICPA

B1: bsAb001 (bispecific antibody, human IgG1, kappa)
heavy: QVQLVQSGAEVKKPGASVKLSCKASGYIFTRYYMYWVKQRPGQGLEWIGEINPNNGGTKFNEKFKNRATLTVDKSISTAYMELSRLRSDDTAVYYCSREDDYDGTPFAMDYWGQGTLVTVSSASTKGPSVFPLAPSSKSTSGGTAALGCLVKDYFPEPVTVSWNSGALTSGVHTFPAVLQSSGLYSLSSVVTVPSSSLGTQTYICNVNHKPSNTKVDKRVEPKSCDKTHTCPPCPAPEFEGGPSVFLFPPKPKDTLMISRTPEVTCVVVDVSHEDPEVKFNWYVDGVEVHNAKTKPREEQYNSTYRVVSVLTVLHQDWLNGKEYKCKVSNKALPASIEKTISKAKGQPREPQVYTLPPSREEMTKNQVSLTCLVKGFYPSDIAVEWESNGQPENNYKTTPPVLDSDGSFFLYSKLTVDKSRWQQGNVFSCSVMHEALHNHYTQKSLSLSPGGGGGSGGGGSGGGGSGGGGSQVQLVQSGVEVKKPGASVKVSCKASGYTFTNYYMYWVRQAPGQGLEWMGGINPSNGGTNFNEKFKNRVTLTTDSSTTTAYMELKSLQFDDTAVYYCARRDYRFDMGFDYWGQGTTVTVSSGGGGSGGGGSGGGGSGGGGSEIVLTQSPATLSLSPGERATLSCRASKGVSTSGYSYLHWYQQKPGQAPRLLIYLASYLESGVPARFSGSGSGTDFTLTISSLEPEDFAVYYCQHSRDLPLTFGGGTKVEIK
light: not shown
B1 had a Jurkat-Vy9Vo2 TCR MOP activation at 0.5 nM (fold-change to medium) of 6.5 and a Jurkat-Vy9Vo2 TCR MOP activation at 5 nM (fold-change to medium) of 4.5.

B2: bsAb005 (bispecific antibody)
heavy: QVQLVQSGAEVKKPGASVKLSCKASGYIFTRYYMYWVKQRPGQGLEWIGEINPNNGGTKFNEKFKNRATLTVDKSISTAYMELSRLRSDDTAVYYCSREDDYDGTPFAMDYWGQGTLVTVSSASTKGPSVFPLAPSSKSTSGGTAALGCLVKDYFPEPVTVSWNSGALTSGVHTFPAVLQSSGLYSLSSVVTVPSSSLGTQTYICNVNHKPSNTKVDKRVEPKSCDKTHTCPPCPAPEFEGGPSVFLFPPKPKDTLMISRTPEVTCVVVDVSHEDPEVKFNWYVDGVEVHNAKTKPREEQYNSTYRVVSVLTVLHQDWLNGKEYKCKVSNKALPASIEKTISKAKGQPREPQVYTLPPSREEMTKNQVSLTCLVKGFYPSDIAVEWESNGQPENNYKTTPPVLDSDGSFFLYSKLTVDKSRWQQGNVFSCSVMHEALHNHYTQKSLSLSPGGGGGSGGGGSGGGGSGGGGSEIVLTQSPATLSLSPGERATLSCRASKGVSTSGYSYLHWYQQKPGQAPRLLIYLASYLESGVPARFSGSGSGTDFTLTISSLEPEDFAVYYCQHSRDLPLTFGGGTKVEIKGGGGSGGGGSGGGGSGGGGSQVQLVQSGVEVKKPGASVKVSCKASGYTFTNYYMYWVRQAPGQGLEWMGGINPSNGGTNFNEKFKNRVTLTTDSSTTTAYMELKSLQFDDTAVYYCARRDYRFDMGFDYWGQGTTVTVSS
light: not shown
For the molecule B2, the Jurkat-Vy9Vo2 TCR MOP activation at 0.5 nM (fold-change to medium) amounted to 6 and the Jurkat-Vy9Vo2 TCR MOP activation at 5 nM (fold-change to medium) was 4.2.

B3: bsAb035 (bispecific antibody, not shown: small tags and cut ends)
heavy (part 1 of 2): QVQLVQSGAEVKKPGASVKLSCKASGYIFTRYYMYWVKQRPGQGLEWIGEINPNNGGTKFNEKFKNRATLTVDKSISTAYMELSRLRSDDTAVYYCSREDDYDGTPFAMDYWGQGTLVTVSS
heavy (part 2 of 2): GGGGSGGGGSGGGGSGGGGSEVQLVESGGGLVQPGGSLRLSCAASGFTFSRYWMSWVRQAPGKGLEWVANIKQDGSEKYYVDSVKGRFTISRDNAKNSLYLQMNSLRAEDTAVYYCAREGGWFGELAFDYWGQGTLVTVSSGGGGSGGGGSGGGGSGGGGSEIVLTQSPGTLSLSPGERATLSCRASQRVSSSYLAWYQQKPGQAPRLLIYDASSRATGIPDRFSGSGSGTDFTLTISRLEPEDFAVYYCQQYGSLPWTFGQGTKVEIK
heavy: QVQLVQSGAEVKKPGASVKLSCKASGYIFTRYYMYWVKQRPGQGLEWIGEINPNNGGTKFNEKFKNRATLTVDKSISTAYMELSRLRSDDTAVYYCSREDDYDGTPFAMDYWGQGTLVTVSS
light: not shown
As to B3, the Jurkat-Vy9Vo2 TCR MOP activation at 0.5 nM (fold-change to medium) was determined as 14.1 and the Jurkat-Vy9Vo2 TCR MOP activation at 5 nM (fold-change to medium) was found to be 11.2.

B4: bsAb051 (bispecific antibody, not shown: small tags and cut ends; a dimerising Fc or GST)
heavy (part 1 of 2): QVQLVQSGAEVKKPGASVKLSCKASGYIFTRYYMYWVKQRPGQGLEWIGEINPNNGGTKFNEKFKNRATLTVDKSISTAYMELSRLRSDDTAVYYCSREDDYDGTPFAMDYWGQGTLVTVSS
heavy (part 2 of 2): GGGGSGGGGSGGGGSGGGGSEVQLVESGGGLVQPGGSLRLSCAASGFTFSRYWMSWVRQAPGKGLEWVANIKQDGSEKYYVDSVKGRFTISRDNAKNSLYLQMNSLRAEDTAVYYCAREGGWFGELAFDYWGQGTLVTVSSGGGGSGGGGSGGGGSGGGGSEIVLTQSPGTLSLSPGERATLSCRASQRVSSSYLAWYQQKPGQAPRLLIYDASSRATGIPDRFSGSGSGTDFTLTISRLEPEDFAVYYCQQYGSLPWTFGQGTKVEIK
heavy: GGGGSGGGGSGGGGSGGGGSEVQLVESGGGLVQPGGSLRLSCAASGFTFSRYWMSWVRQAPGKGLEWVANIKQDGSEKYYVDSVKGRFTISRDNAKNSLYLQMNSLRAEDTAVYYCAREGGWFGELAFDYWGQGTLVTVSSGGGGSGGGGSGGGGSGGGGSEIVLTQSPGTLSLSPGERATLSCRASQRVSSSYLAWYQQKPGQAPRLLIYDASSRATGIPDRFSGSGSGTDFTLTISRLEPEDFAVYYCQQYGSLPWTFGQGTKVEIK
light: not shown
Consider B4, for which the Jurkat-Vy9Vo2 TCR MOP activation at 0.5 nM (fold-change to medium) worked out at 1.5 and the Jurkat-Vy9Vo2 TCR MOP activation at 5 nM (fold-change to medium) is 2.3.

B5: bsAb055 (bispecific antibody, not shown: a dimerising Fc or GST; small tags and cut ends)
heavy 1: GGGGSGGGGSGGGGSGGGGSEVQLVESGGGLVQPGGSLRLSCAASGFTFSRYWMSWVRQAPGKGLEWVANIKQDGSEKYYVDSVKGRFTISRDNAKNSLYLQMNSLRAEDTAVYYCAREGGWFGELAFDYWGQGTLVTVSSGGGGSGGGGSGGGGSGGGGSEIVLTQSPGTLSLSPGERATLSCRASQRVSSSYLAWYQQKPGQAPRLLIYDASSRATGIPDRFSGSGSGTDFTLTISRLEPEDFAVYYCQQYGSLPWTFGQGTKVEIK
heavy 2: QVQLVQSGAEVKKPGASVKLSCKASGYIFTRYYMYWVKQRPGQGLEWIGEINPNNGGTKFNEKFKNRATLTVDKSISTAYMELSRLRSDDTAVYYCSREDDYDGTPFAMDYWGQGTLVTVSS
light: not shown
As for B5, the Jurkat-Vy9Vo2 TCR MOP activation at 0.5 nM (fold-change to medium) stood at 2.9 and the Jurkat-Vy9Vo2 TCR MOP activation at 5 nM (fold-change to medium) was found to be 11.8.

B6: bsAb040 (bispecific antibody, not shown: small tags and cut ends)
heavy (part 1 of 2): QVQLVQSGAEVKKPGASVKLSCKASGYIFTRYYMYWVKQRPGQGLEWIGEINPNNGGTKFNEKFKNRATLTVDKSISTAYMELSRLRSDDTAVYYCSREDDYDGTPFAMDYWGQGTLVTVSS
heavy (part 2 of 2): GGGGSGGGGSGGGGSGGGGSEIVLTQSPGTLSLSPGERATLSCRASQRVSSSYLAWYQQKPGQAPRLLIYDASSRATGIPDRFSGSGSGTDFTLTISRLEPEDFAVYYCQQYGSLPWTFGQGTKVEIKGGGGSGGGGSGGGGSGGGGSEVQLVESGGGLVQPGGSLRLSCAASGFTFSRYWMSWVRQAPGKGLEWVANIKQDGSEKYYVDSVKGRFTISRDNAKNSLYLQMNSLRAEDTAVYYCAREGGWFGELAFDYWGQGTLVTVSS
heavy: QVQLVQSGAEVKKPGASVKLSCKASGYIFTRYYMYWVKQRPGQGLEWIGEINPNNGGTKFNEKFKNRATLTVDKSISTAYMELSRLRSDDTAVYYCSREDDYDGTPFAMDYWGQGTLVTVSS
light: not shown
Turning to B6, the Jurkat-Vy9Vo2 TCR MOP activation at 0.5 nM (fold-change to medium) came out at 10.4 and the Jurkat-Vy9Vo2 TCR MOP activation at 5 nM (fold-change to medium) was found to be 8.8.

B7: bsAb050 (bispecific antibody, not shown: small tags and cut ends)
heavy 1: EVQLVESGGGLVQPGGSLRLSCAASGFTFSRYWMSWVRQAPGKGLEWVANIKQDGSEKYYVDSVKGRFTISRDNAKNSLYLQMNSLRAEDTAVYYCAREGGWFGELAFDYWGQGTLVTVSSGGGGSGGGGSGGGGSGGGGSEIVLTQSPGTLSLSPGERATLSCRASQRVSSSYLAWYQQKPGQAPRLLIYDASSRATGIPDRFSGSGSGTDFTLTISRLEPEDFAVYYCQQYGSLPWTFGQGTKVEIKGGGGSGGGGSGGGGSGGGGSQVQLVQSGAEVKKPGASVKLSCKASGYIFTRYYMYWVKQRPGQGLEWIGEINPNNGGTKFNEKFKNRATLTVDKSISTAYMELSRLRSDDTAVYYCSREDDYDGTPFAMDYWGQGTLVTVSS
heavy 2: QVQLVQSGAEVKKPGASVKLSCKASGYIFTRYYMYWVKQRPGQGLEWIGEINPNNGGTKFNEKFKNRATLTVDKSISTAYMELSRLRSDDTAVYYCSREDDYDGTPFAMDYWGQGTLVTVSS
light: not shown
B7 returned a Jurkat-Vy9Vo2 TCR MOP activation at 0.5 nM (fold-change to medium) of 10.1 and a Jurkat-Vy9Vo2 TCR MOP activation at 5 nM (fold-change to medium) of 9.3.

B8: bsAb048 (bispecific antibody, not shown: small tags and cut ends)
heavy 1: EIVLTQSPGTLSLSPGERATLSCRASQRVSSSYLAWYQQKPGQAPRLLIYDASSRATGIPDRFSGSGSGTDFTLTISRLEPEDFAVYYCQQYGSLPWTFGQGTKVEIKGGGGSGGGGSGGGGSGGGGSEVQLVESGGGLVQPGGSLRLSCAASGFTFSRYWMSWVRQAPGKGLEWVANIKQDGSEKYYVDSVKGRFTISRDNAKNSLYLQMNSLRAEDTAVYYCAREGGWFGELAFDYWGQGTLVTVSSGGGGSGGGGSGGGGSGGGGSQVQLVQSGAEVKKPGASVKLSCKASGYIFTRYYMYWVKQRPGQGLEWIGEINPNNGGTKFNEKFKNRATLTVDKSISTAYMELSRLRSDDTAVYYCSREDDYDGTPFAMDYWGQGTLVTVSS
heavy 2: QVQLVQSGAEVKKPGASVKLSCKASGYIFTRYYMYWVKQRPGQGLEWIGEINPNNGGTKFNEKFKNRATLTVDKSISTAYMELSRLRSDDTAVYYCSREDDYDGTPFAMDYWGQGTLVTVSS
light: not shown
With B8, the Jurkat-Vy9Vo2 TCR MOP activation at 0.5 nM (fold-change to medium) amounted to 8.2 and the Jurkat-Vy9Vo2 TCR MOP activation at 5 nM (fold-change to medium) is 7.9.

B9: bsAb020 (bispecific antibody)
heavy: DIQMTQSPSSLSASVGDRVTITCHASQNINVWLSWYQQKPGKAPKLLIYKASNLHTGVPSRFTGSGSGTDFTFTISSLQPEDIATYYCQQGQTYPYTFGQGTKLEIKGGGGSGGGGSGGGGSGGGGSQVQLVQSGAEVKKPGASVKLSCKASGYIFTRYYMYWVKQRPGQGLEWIGEINPNNGGTKFNEKFKNRATLTVDKSISTAYMELSRLRSDDTAVYYCSREDDYDGTPFAMDYWGQGTLVTVSSGGGGSGGGGSGGGGSGGGGSEVQLVESGGGLVQPGGSLRLSCAASGFTFSRYWMSWVRQAPGKGLEWVANIKQDGSEKYYVDSVKGRFTISRDNAKNSLYLQMNSLRAEDTAVYYCAREGGWFGELAFDYWGQGTLVTVSSASTKGPSVFPLAPSSKSTSGGTAALGCLVKDYFPEPVTVSWNSGALTSGVHTFPAVLQSSGLYSLSSVVTVPSSSLGTQTYICNVNHKPSNTKVDKRVEPKSCDKTHTCPPCPAPEFEGGPSVFLFPPKPKDTLMISRTPEVTCVVVDVSHEDPEVKFNWYVDGVEVHNAKTKPREEQYNSTYRVVSVLTVLHQDWLNGKEYKCKVSNKALPASIEKTISKAKGQPREPQVYTLPPSREEMTKNQVSLTCLVKGFYPSDIAVEWESNGQPENNYKTTPPVLDSDGSFFLYSKLTVDKSRWQQGNVFSCSVMHEALHNHYTQKSLSLSPG
light: EIVLTQSPGTLSLSPGERATLSCRASQRVSSSYLAWYQQKPGQAPRLLIYDASSRATGIPDRFSGSGSGTDFTLTISRLEPEDFAVYYCQQYGSLPWTFGQGTKVEIKRTVAAPSVFIFPPSDEQLKSGTASVVCLLNNFYPREAKVQWKVDNALQSGNSQESVTEQDSKDSTYSLSSTLTLSKADYEKHKVYACEVTHQGLSSPVTKSFNRGEC
Molecule B9 came in with a Jurkat-Vy9Vo2 TCR MOP activation at 0.5 nM (fold-change to medium) of 1.1 and a Jurkat-Vy9Vo2 TCR MOP activation at 5 nM (fold-change to medium) of 1.

The values above are taken from patent publication US20260265379A1.
